What was measured:
HLA-A*02:01 [1] = assay: IEDB peptide-MHC binding, cellular MHC/competitive/fluorescence; ≥ and ≤ were set here for values at or beyond the usual limits of such assays
HLA-A*02:03 = assay: as above
HLA-A*02:06 [2] = assay: as above
HLA-A*02:02 = assay: IEDB peptide-MHC binding, purified MHC/competitive/radioactivity; ≥ and ≤ were set here for values at or beyond the usual limits of such assays
HLA-A*68:02 [3] = assay: as above
HLA-A*68:02 [4] = assay: IEDB peptide-MHC binding, cellular MHC/competitive/fluorescence; ≥ and ≤ were set here for values at or beyond the usual limits of such assays
HLA-A*02:01 [5] = assay: IEDB peptide-MHC binding, purified MHC/competitive/radioactivity; ≥ and ≤ were set here for values at or beyond the usual limits of such assays
HLA-A*02:06 [6] = assay: as above
[7] = source organism: Influenza A virus
[8] = source organism: Mammarenavirus whitewaterense
[9] = source organism: Vaccinia virus WR
[10] = source organism: Mammarenavirus choriomeningitidis
[11] = source organism: Mammarenavirus machupoense
[12] = source organism: Mammarenavirus guanaritoense
[13] = source organism: Mammarenavirus brazilense

**Q.** How did the IC50 (HLA-A*02:01 [1]; [7]) turn out when FNPMIVELA was run?
**A.** The IC50 was 25.2 µM.

**Q.** What about the IC50 (HLA-A*02:03; [7]) of the same sequence?
**A.** Its IC50 is 11.6 µM.

**Q.** And the IC50 (HLA-A*02:06 [2]; [7])?
**A.** Its IC50 is 12.6 µM.

**Q.** What about the IC50 (HLA-A*02:02; [7]) of the same sequence?
**A.** The IC50 was 0.937 µM.

**Q.** And the IC50 (HLA-A*68:02 [3]; [7])?
**A.** The IC50 was 1.62 µM.

**Q.** GLLQFIVFL was tested. Which IC50 (HLA-A*02:03; [8]) did it give?
**A.** Its IC50 is 7.72 µM.

**Q.** And the IC50 (HLA-A*68:02 [4]; [8])?
**A.** Its IC50 is 12 µM.

**Q.** And the IC50 (HLA-A*02:01 [5]; [8])?
**A.** The IC50 was 0.0075 nM.

**Q.** And the IC50 (HLA-A*02:02; [8])?
**A.** Its IC50 is 0.0006 µM.

**Q.** And the IC50 (HLA-A*02:06 [6]; [8])?
**A.** The IC50 was 0.012 µM.

**Q.** Which IC50 (HLA-A*02:01 [1]; [9]) does the source give for IISTDQDTM here?
**A.** The IC50 was 5.87 µM.

**Q.** And the IC50 (HLA-A*02:03; [9])?
**A.** Its IC50 is 33.2 µM.

**Q.** What about the IC50 (HLA-A*68:02 [4]; [9]) of the same sequence?
**A.** Its IC50 is 6.69 µM.

**Q.** And the IC50 (HLA-A*02:02; [9])?
**A.** The IC50 was 4.3 µM.

**Q.** And the IC50 (HLA-A*02:06 [6]; [9])?
**A.** Its IC50 is 2.36 µM.

**Q.** With KQIMECSRML as the sequence, how does the IC50 (HLA-A*02:03; [9]) read?
**A.** The IC50 was 29.6 µM.

**Q.** What about the IC50 (HLA-A*68:02 [4]; [9]) of the same sequence?
**A.** Its IC50 is 7.47 µM.

**Q.** What about the IC50 (HLA-A*02:01 [5]; [9]) of the same sequence?
**A.** Its IC50 is 357 nM.

**Q.** What about the IC50 (HLA-A*02:02; [9]) of the same sequence?
**A.** The IC50 was 0.055 µM.

**Q.** And the IC50 (HLA-A*02:06 [6]; [9])?
**A.** The IC50 was 0.06 µM.

**Q.** What does the source list for ALWDSNFFT?
**A.** IC50 (HLA-A*02:03; [9]): 28.2 µM; IC50 (HLA-A*02:06 [2]; [9]): 23.1 µM; IC50 (HLA-A*68:02 [4]; [9]): 7.41 µM; IC50 (HLA-A*02:01 [5]; [9]): 3690 nM; IC50 (HLA-A*02:02; [9]): 1.06 µM

**Q.** How did the IC50 (HLA-A*02:03; [9]) turn out when VQLSNNKYVL was run?
**A.** The IC50 was 9.49 µM.

**Q.** What about the IC50 (HLA-A*68:02 [4]; [9]) of the same sequence?
**A.** Its IC50 is at least 70 µM.

**Q.** And the IC50 (HLA-A*02:01 [5]; [9])?
**A.** The IC50 was 4590 nM.

**Q.** What about the IC50 (HLA-A*02:02; [9]) of the same sequence?
**A.** The IC50 was 0.288 µM.

**Q.** And the IC50 (HLA-A*02:06 [6]; [9])?
**A.** Its IC50 is 0.17 µM.

**Q.** For GARVIWMDA, which IC50 (HLA-A*02:01 [1]; [9]) is on record?
**A.** Its IC50 is 7.73 µM.

**Q.** What about the IC50 (HLA-A*02:03; [9]) of the same sequence?
**A.** The IC50 was 9.14 µM.

**Q.** And the IC50 (HLA-A*68:02 [4]; [9])?
**A.** The IC50 was 12 µM.

**Q.** And the IC50 (HLA-A*02:02; [9])?
**A.** Its IC50 is 4.61 µM.

**Q.** And the IC50 (HLA-A*02:06 [6]; [9])?
**A.** Its IC50 is 2.14 µM.

**Q.** Which IC50 (HLA-A*02:01 [1]; [9]) does the source give for IASKINNNRI here?
**A.** The IC50 was 30.8 µM.

**Q.** What about the IC50 (HLA-A*02:03; [9]) of the same sequence?
**A.** The IC50 was 18.5 µM.

**Q.** And the IC50 (HLA-A*02:06 [2]; [9])?
**A.** Its IC50 is 9.42 µM.

**Q.** What about the IC50 (HLA-A*02:02; [9]) of the same sequence?
**A.** The IC50 was 0.732 µM.

**Q.** And the IC50 (HLA-A*68:02 [3]; [9])?
**A.** The IC50 was 0.163 µM.

**Q.** How did the IC50 (HLA-A*02:03; source organism: SARS-CoV1) turn out when IMLIIFWFSL was run?
**A.** Its IC50 is 14.9 µM.

**Q.** What about the IC50 (HLA-A*02:06 [2]; source organism: SARS-CoV1) of the same sequence?
**A.** The IC50 was 16.8 µM.

**Q.** And the IC50 (HLA-A*68:02 [4]; source organism: SARS-CoV1)?
**A.** The IC50 was at least 70 µM.

**Q.** And the IC50 (HLA-A*02:01 [5]; source organism: SARS-CoV1)?
**A.** Its IC50 is 3830 nM.

**Q.** What about the IC50 (HLA-A*02:02; source organism: SARS-CoV1) of the same sequence?
**A.** Its IC50 is 1.54 µM.

**Q.** How did the IC50 (HLA-A*02:03; [9]) turn out when IASILSLET was run?
**A.** Its IC50 is 7.48 µM.

**Q.** What about the IC50 (HLA-A*68:02 [4]; [9]) of the same sequence?
**A.** The IC50 was 7.76 µM.

**Q.** And the IC50 (HLA-A*02:01 [5]; [9])?
**A.** The IC50 was 2540 nM.

**Q.** What about the IC50 (HLA-A*02:02; [9]) of the same sequence?
**A.** Its IC50 is 3.67 µM.

**Q.** And the IC50 (HLA-A*02:06 [6]; [9])?
**A.** The IC50 was 0.318 µM.

**Q.** LSYSQTMLL was tested. Which IC50 (HLA-A*02:01 [1]; [10]) did it give?
**A.** Its IC50 is 8.28 µM.

**Q.** And the IC50 (HLA-A*02:03; [10])?
**A.** Its IC50 is 11.3 µM.

**Q.** And the IC50 (HLA-A*68:02 [4]; [10])?
**A.** Its IC50 is 6.76 µM.

**Q.** And the IC50 (HLA-A*02:02; [10])?
**A.** Its IC50 is 2.11 µM.

**Q.** What about the IC50 (HLA-A*02:06 [6]; [10]) of the same sequence?
**A.** The IC50 was 3.72 µM.

**Q.** Which IC50 (HLA-A*02:03; [11]) does the source give for LNIALVAVSL here?
**A.** The IC50 was 12.5 µM.

**Q.** And the IC50 (HLA-A*02:06 [2]; [11])?
**A.** The IC50 was 13.2 µM.

**Q.** And the IC50 (HLA-A*02:01 [5]; [11])?
**A.** Its IC50 is 1250 nM.

**Q.** And the IC50 (HLA-A*02:02; [11])?
**A.** The IC50 was 0.18 µM.

**Q.** What about the IC50 (HLA-A*68:02 [3]; [11]) of the same sequence?
**A.** Its IC50 is 0.52 µM.

**Q.** For LCFWSAIFFT, which IC50 (HLA-A*02:01 [1]; [12]) is on record?
**A.** Its IC50 is 5.57 µM.

**Q.** What about the IC50 (HLA-A*02:03; [12]) of the same sequence?
**A.** The IC50 was 30.3 µM.

**Q.** And the IC50 (HLA-A*02:06 [2]; [12])?
**A.** The IC50 was 34.6 µM.

**Q.** And the IC50 (HLA-A*02:02; [12])?
**A.** The IC50 was 2.61 µM.

**Q.** And the IC50 (HLA-A*68:02 [3]; [12])?
**A.** Its IC50 is 1.82 µM.

**Q.** KISVEKIKQT was tested. Which IC50 (HLA-A*02:03; [9]) did it give?
**A.** The IC50 was 8.96 µM.

**Q.** What about the IC50 (HLA-A*02:06 [2]; [9]) of the same sequence?
**A.** The IC50 was 21 µM.

**Q.** And the IC50 (HLA-A*68:02 [4]; [9])?
**A.** Its IC50 is 11.2 µM.

**Q.** What about the IC50 (HLA-A*02:01 [5]; [9]) of the same sequence?
**A.** The IC50 was 4670 nM.

**Q.** What about the IC50 (HLA-A*02:02; [9]) of the same sequence?
**A.** Its IC50 is 1.23 µM.

**Q.** Which results are given for LLLIVQALR?
**A.** IC50 (HLA-A*02:03; [7]): 8.19 µM; IC50 (HLA-A*68:02 [4]; [7]): 42.4 µM; IC50 (HLA-A*02:01 [5]; [7]): 3090 nM; IC50 (HLA-A*02:02; [7]): 1.49 µM; IC50 (HLA-A*02:06 [6]; [7]): 3.15 µM

**Q.** LNISGYNYSL was tested. Which IC50 (HLA-A*02:01 [1]; [13]) did it give?
**A.** Its IC50 is 10.6 µM.

**Q.** And the IC50 (HLA-A*02:03; [13])?
**A.** Its IC50 is 49 µM.

**Q.** What about the IC50 (HLA-A*68:02 [4]; [13]) of the same sequence?
**A.** Its IC50 is 12.9 µM.

**Q.** What about the IC50 (HLA-A*02:02; [13]) of the same sequence?
**A.** Its IC50 is 0.077 µM.

**Q.** What about the IC50 (HLA-A*02:06 [6]; [13]) of the same sequence?
**A.** The IC50 was 1.1 µM.

**Q.** Which IC50 (HLA-A*02:03; [9]) does the source give for ITDDSDDYEL here?
**A.** The IC50 was 11.9 µM.

**Q.** What about the IC50 (HLA-A*68:02 [4]; [9]) of the same sequence?
**A.** The IC50 was 11.9 µM.

**Q.** What about the IC50 (HLA-A*02:01 [5]; [9]) of the same sequence?
**A.** Its IC50 is 1730 nM.

**Q.** What about the IC50 (HLA-A*02:02; [9]) of the same sequence?
**A.** The IC50 was 0.687 µM.

**Q.** What about the IC50 (HLA-A*02:06 [6]; [9]) of the same sequence?
**A.** Its IC50 is 0.049 µM.

— the Immune Epitope Database (IEDB)
